Changes are numbered by the printed parent chain. Names and notes keep the numbering of the source. Values belong to the binder of their own block, whether it stands above or below them.
Target: plasma purified human complement protein C3 (human) (UniProt P01024)
Assay: cell-based or functional assay

Sequence of plasma purified human complement protein C3 (human) (P01024 23-667, chain 1 of 2): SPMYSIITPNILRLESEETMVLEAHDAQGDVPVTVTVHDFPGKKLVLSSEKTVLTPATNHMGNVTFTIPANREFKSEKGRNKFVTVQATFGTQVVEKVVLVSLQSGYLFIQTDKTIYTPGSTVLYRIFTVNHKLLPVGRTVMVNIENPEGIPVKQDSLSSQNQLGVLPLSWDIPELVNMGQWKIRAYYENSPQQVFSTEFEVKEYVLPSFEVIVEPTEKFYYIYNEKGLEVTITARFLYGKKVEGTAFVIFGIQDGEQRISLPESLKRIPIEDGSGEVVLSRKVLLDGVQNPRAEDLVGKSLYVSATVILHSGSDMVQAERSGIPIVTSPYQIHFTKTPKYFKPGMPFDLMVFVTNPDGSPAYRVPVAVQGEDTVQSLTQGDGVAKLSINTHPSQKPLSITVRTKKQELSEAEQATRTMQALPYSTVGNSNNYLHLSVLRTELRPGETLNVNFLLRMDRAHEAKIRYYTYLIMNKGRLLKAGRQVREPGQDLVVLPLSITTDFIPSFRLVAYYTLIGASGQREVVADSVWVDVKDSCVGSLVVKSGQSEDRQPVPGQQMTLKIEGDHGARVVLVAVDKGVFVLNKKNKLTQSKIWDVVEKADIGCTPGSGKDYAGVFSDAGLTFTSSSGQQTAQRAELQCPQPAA
Sequence of plasma purified human complement protein C3 (human) (P01024 672-1663, chain 2 of 2): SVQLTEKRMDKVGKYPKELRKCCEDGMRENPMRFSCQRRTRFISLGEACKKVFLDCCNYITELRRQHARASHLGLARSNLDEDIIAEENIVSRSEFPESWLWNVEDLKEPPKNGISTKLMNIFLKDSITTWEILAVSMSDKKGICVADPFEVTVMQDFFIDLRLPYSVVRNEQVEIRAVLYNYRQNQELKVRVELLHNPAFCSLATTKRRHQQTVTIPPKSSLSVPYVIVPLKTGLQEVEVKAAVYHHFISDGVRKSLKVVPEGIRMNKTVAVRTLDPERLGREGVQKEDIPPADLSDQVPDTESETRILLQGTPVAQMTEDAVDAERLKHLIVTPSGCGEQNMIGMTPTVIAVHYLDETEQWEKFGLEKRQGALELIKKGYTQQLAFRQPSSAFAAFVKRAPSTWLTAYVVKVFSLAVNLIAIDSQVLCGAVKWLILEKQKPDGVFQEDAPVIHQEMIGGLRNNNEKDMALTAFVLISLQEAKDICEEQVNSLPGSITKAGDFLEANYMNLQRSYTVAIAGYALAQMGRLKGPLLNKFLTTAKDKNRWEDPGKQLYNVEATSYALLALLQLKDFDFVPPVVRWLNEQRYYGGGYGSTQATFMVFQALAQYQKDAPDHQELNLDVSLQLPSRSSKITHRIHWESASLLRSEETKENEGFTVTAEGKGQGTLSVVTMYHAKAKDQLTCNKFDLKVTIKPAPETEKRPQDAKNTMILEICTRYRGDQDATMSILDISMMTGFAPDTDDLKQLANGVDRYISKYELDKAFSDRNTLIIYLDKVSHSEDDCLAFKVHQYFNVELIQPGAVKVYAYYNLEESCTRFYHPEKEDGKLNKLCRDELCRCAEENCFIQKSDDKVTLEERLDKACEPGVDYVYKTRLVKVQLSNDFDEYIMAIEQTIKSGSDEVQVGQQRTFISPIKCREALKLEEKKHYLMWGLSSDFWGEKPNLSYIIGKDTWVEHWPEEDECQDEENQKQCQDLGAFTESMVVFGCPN

B2: MTSP-1 H40K/I41M/F97D/F99L/C122S/Q175M/Q192D/D217N/K224R (enzyme)
chain: VVGGTDADEGEWPWQVSLHALGQGKMCGASLISPNWLVSAAHCYIDDRGFRYSDPTQWTAFLGLHDQSQRSAPGVQERRLKRIISHPFFNDDTLDYDIALLELEKPAEYSSMVRPISLPDASHVFPAGKAIWVTGWGHTQYGGTGALILQKGEIRVINQTTCENLLPQMITPRMMCVGFLSGGVDSCDGDSGGPLSSVEADGRIFQAGVVSWGNGCAQRNRPGVYTRLPLFRDWIKENTGV
- EC50 of hC3 cleavage: 0.00964 µM

B3: MTSP-1 H40K/I41M/F97D/F99L/C122S/G151N/Q175M/Q192D/D217N/K224R (enzyme)
chain: B2 chain with G145N
- EC50 of hC3 cleavage: 0.00974 µM

B6: MTSP-1 H40K/I41M/F97D/F99L/C122S/G151N/Q175M/Q192A/D217N/K224R (enzyme)
chain: B2 chain with G145N, D188A
- EC50 of hC3 cleavage: 1.23 µM

B7: MTSP-1 H40R/I41H/F97D/F99L/C122S/G151N/L153R (enzyme)
chain: B2 chain with K25R, M26H, G145N, L147R, M169Q, D188Q, N214D, R221K
- EC50 of hC3 cleavage: 0.0599 µM

B8: MTSP-1 H40K/I41M/F97D/F99L/C122S/Q175M/D217N/K224R (enzyme)
chain: B2 chain with D188Q
- EC50 of hC3 cleavage: 0.144 µM

B10: MTSP-1 H40R/I41H/F97D/F99L/C122S/G151N/Q175L/Q192A/D217N/K224R (enzyme)
chain: B2 chain with K25R, M26H, G145N, M169L, D188A
- EC50 of hC3 cleavage: 0.54 µM

B11: MTSP-1 H40K/I41M/F97D/F99L/C122S/G151N/Q175L/Q192A/D217N/K224R (enzyme)
chain: B2 chain with G145N, M169L, D188A
- EC50 of hC3 cleavage: 1.29 µM

B13: MTSP-1 H40R/I41H/F97D/C122S/G151N/L153R/V202M (enzyme)
chain: B2 chain with K25R, M26H, L94F, G145N, L147R, M169Q, D188Q, V198M, N214D, R221K
- EC50 of hC3 cleavage: 0.103 µM

Now from value to binder:

- EC50 of hC3 cleavage: 0.563 µM
B1: MTSP-1 H40R/I41H/F97D/F99L/C122S/G151N/Q175M/Q192A/D217N/K224R (enzyme)
chain: B2 chain with K25R, M26H, G145N, D188A

- EC50 of hC3 cleavage: 0.179 µM
B4: MTSP-1 H40R/I41H/F97D/F99L/C122S/G151N/Q192H (enzyme)
chain: B2 chain with K25R, M26H, G145N, M169Q, D188H, N214D, R221K

- EC50 of hC3 cleavage: 0.262 µM
B5: MTSP-1 H40R/I41H/F97D/F99L/C122S/G151N/Q192H/P232S (enzyme)
chain: B2 chain with K25R, M26H, G145N, M169Q, D188H, N214D, R221K, P229S

- EC50 of hC3 cleavage: 9.99 µM
B9: MTSP-1 H40R/I41H/F97D/F99L/C122S/Q175M/Q192D/D217N/K224R (enzyme)
chain: B2 chain with K25R, M26H

- EC50 of hC3 cleavage: 0.103 µM
B12: MTSP-1 H40R/I41H/F97D/F99L/C122S/Q175M/D217N/K224R (enzyme)
chain: B2 chain with K25R, M26H, D188Q

- EC50 of hC3 cleavage: 5.86 µM
B14: MTSP-1 H40R/I41H/F97T/ins97aE/T98G/F99L/C122S/Q175L/Q192E (enzyme)
chain: VVGGTDADEGEWPWQVSLHALGQGRHCGASLISPNWLVSAAHCYIDDRGFRYSDPTQWTAFLGLHDQSQRSAPGVQERRLKRIISHPFFNDTEGLDYDIALLELEKPAEYSSMVRPISLPDASHVFPAGKAIWVTGWGHTQYGGTGALILQKGEIRVINQTTCENLLPQLITPRMMCVGFLSGGVDSCEGDSGGPLSSVEADGRIFQAGVVSWGDGCAQRNKPGVYTRLPLFRDWIKENTGV

- EC50 of hC3 cleavage: 0.046 µM
B15: MTSP-1 H40R/I41H/F97T/ins97aE/T98G/F99L/C122S/Q175L/Q192G (enzyme)
chain: B14 chain with E189G

- EC50 of hC3 cleavage: 0.0824 µM
B16: MTSP-1 H40R/I41H/F97E/ins97aE/T98G/F99L/C122S/Q175L/Q192G (enzyme)
chain: B14 chain with T92E, E189G

- EC50 of hC3 cleavage: 0.0397 µM
B17: MTSP-1 H40R/I41H/F97D/ins97aE/T98G/F99L/C122S/Q175L/Q192G (enzyme)
chain: B14 chain with T92D, E189G

Reference: US20240018502A1
